Test results: PMC6222199 (Journal of Bacteriology, 2018)

Assays:
[1] = target: the molecule itself; assay: SEC-MALS; MiniDawn Treos MALS in line with a Superdex 200 Increase SEC column; without phosphoramidate
[2] = target: the molecule itself; assay: SEC-MALS; MiniDawn Treos MALS in line with a Superdex 200 Increase SEC column; with the phosphoryl donor phosphoramidate (50 uM protein with 50 mM phosphoramidate in 20 mM Tris pH 8, 50 mM NaCl, 10 mM MgCl2, 10 min, room temperature)

B1: RR_1586 (response regulator encoded by CDR20291_1586), wild type, unphosphorylated (natural protein, Clostridioides difficile R20291, UniProt A0A9R0BKD1 1-223, looked up)
chain: MKVLIVEDNKILLESVVEELSKHFETEKCEDGEEALYLVNQNIYDLVILDLMLPNINGFDILKKMRVNNIDTPVLILTAKETLDDKVEAFTIGANDYLTKPFYMEELVARVYAILRTNGKIKERNGLEFKSLYLDTLEKRVYIEKEEIKLQNKQFNLLEYFVLNKGSILLKEQIYDRIWGIDSDATIEIVEVYVSNLRKKLSKYGYDKYIKTKRKVGYIFDDK
notes: also called apo-RR_1586; wild-type RR_1586
- stoichiometry N [1]: 2

B2: phosphorylated RR_1586 (wild type treated with phosphoramidate) (natural protein, Clostridioides difficile R20291, UniProt A0A9R0BKD1 1-223, looked up)
chain: B1 chain
notes: also called phospho-RR_1586
- stoichiometry N [2]: 4
